Experimental data as given in patent US10874724B2, “Enzymatic immunomodulation of solid tumors and uses thereof” (University of Houston System, priority 2015, dated 2020).

Experiments:
HT29 cells = assay: Effect of cAdo on cell proliferation (WST 1); assay type: cell-based; details: cAdo at 10 μM and above, WST 1 after 5 days
Description: 10^4 cells were seeded in 96 well dish in 100 μl. 12 hrs later the cells were treated with […] and 50 μM of cAdo and the cells were later assayed for cell number quantitatively using WST 1 reagent after 5 days. Briefly 10 μl of WST1 reagent was added to each well. The cells were incubated for 4 hrs. OD was measured using microtiter plate reader at 460 nm.

4T1 cells = assay: Wound healing assay; assay type: cell-based; details: 10 μM Adenosine or 50 μM ADA or both; wound area at 48 hrs
Description: Briefly, 4T1 cells were cultured to confluence in 35 mm dishes in triplicates. 12 hrs later cell were rinsed with PBS and starved in low serum media (1.5 ml; 0.5%-0.1% serum in RPMI) overnight. […] Pictures were taken immediately of the wound area in phase contrast and 10× and another at 48 hrs. Wound area was calculated using imagej and plotted.

[1] = Stability of mADA enzymatic activity in cell culture medium; assay type: physicochemical; details: culture medium of 4T1, MCF7 and T47D cells; supernatant after 24 h, 48 h and 72 h; even after 3 days
Description: 4T1, MCF7 and T47D cells (1×10^5) were grown in 96 wells culture dish.

[2] = Enzyme activity of mADA-His and mADA-Fc (Adenosine Deaminase Assay Kit); assay type: biochemical; details: supernatant media of transfected HEK293F cells; OD at 550 nm
Description: Enzyme activity of mADA-His and mADA-Fc was assayed with Adenosine Deaminase Assay Kit (BQ 014-EALD). Briefly the 180 μl of reagent 1 was added to 96-well plate. Followed by 5 μl of supernatant media obtained from HEK293F cells transfected with mADA-His or mADA-Fc. Later 90 μl of reagent was added to each well and incubated for 8 mins at 37° C. The OD was measured at 550 nm.

[3] = intramuscular injection; cited from earlier work

## Nc1nc(Cl)nc2c1ncn2[C@@H]1O[C@H](CO)[C@@H](O)[C@H]1O [cAdo, 2-chloro Ado]
HT29 cells
  Rate of cell proliferation: marginal increase

## Nc1ncnc2c1ncn2[C@@H]1O[C@H](CO)[C@@H](O)[C@H]1O [Ado, adenosine, reference compound]
4T1 cells
  Wound healing ability of 4T1 cells: marginally promoted wound healing

B1: mADA: recombinant purified mouse adenosine deaminase (protein, UniProt P03958 2-352, looked up)
Adenosine deaminase: AQTPAFNKPKVELHVHLDGAIKPETILYFGKKRGIALPADTVEELRNIIGMDKPLSLPGFLAKFDYYMPVIAGCREAIKRIAYEFVEMKAKEGVVYVEVRYSPHLLANSKVDPMPWNQTEGDVTPDDVVDLVNQGLQEGEQAFGIKVRSILCCMRHQPSWSLEVLELCKKYNQKTVVAMDLAGDETIEGSSLFPGHVEAYEGAVKNGIHRTVHAGEVGSPEVVREAVDILKTERVGHGYHTIEDEALYNRLLKENMHFEVCPWSSYLTGAWDPKTTHAVVRFKNDKANYSLNTDDPLIFKSTLDTDYQMTKKDMGFTEEEFKRLNINAAKSSFLPEEEKKELLERLYREYQ
[1]
  ADA enzyme activity in cell culture medium: retained its activity

B2: mADA-His: mADA with His tag expressed in HEK293F cells, purified with Ni-NTA column (protein, UniProt P03958 2-352, looked up)
Adenosine deaminase: B1 Adenosine deaminase
modifications: His tag
[2]
  Enzyme activity in supernatant: enzymatically active

B3: ADA: Adenosine deaminase (EC 3.5.4.4), enzyme degrading Ado into inosine and ammonia (protein, UniProt P00813 2-363, looked up)
Adenosine deaminase: AQTPAFDKPKVELHVHLDGSIKPETILYYGRRRGIALPANTAEGLLNVIGMDKPLTLPDFLAKFDYYMPAIAGCREAIKRIAYEFVEMKAKEGVVYVEVRYSPHLLANSKVEPIPWNQAEGDLTPDEVVALVGQGLQEGERDFGVKARSILCCMRHQPNWSPKVVELCKKYQQQTVVAIDLAGDETIPGSSLLPGHVQAYQEAVKSGIHRTVHAGEVGSAEVVKEAVDILKTERLGHGYHTLEDQALYNRLRQENMHFEICPWSSYLTGAWKPDTEHAVIRLKNDQANYSLNTDDPLIFKSTLDTDYQMTKRDMGFTEEEFKRLNINAAKSSFLPEDEKRELLDLLYKAYGMPPSASAGQNL
4T1 cells
  Wound healing ability of 4T1 cells: did not alter the wound healing ability

B4: bADA: bovine adenosine deaminase; PEGylated bADA is FDA approved (protein, UniProt P56658 2-363, looked up)
Adenosine deaminase: AQTPAFNKPKVELHVHLDGAIKPETILYYGRKRGIALPADTPEELQNIIGMDKPLSLPEFLAKFDYYMPAIAGCREAVKRIAYEFVEMKAKDGVVYVEVRYSPHLLANSKVEPIPWNQAEGDLTPDEVVSLVNQGLQEGERDFGVKVRSILCCMRHQPSWSSEVVELCKKYREQTVVAIDLAGDETIEGSSLFPGHVKAYAEAVKSGVHRTVHAGEVGSANVVKEAVDTLKTERLGHGYHTLEDATLYNRLRQENMHFEVCPWSSYLTGAWKPDTEHPVVRFKNDQVNYSLNTDDPLIFKSTLDTDYQMTKNEMGFTEEEFKRLNINAAKSSFLPEDEKKELLDLLYKAYGMPSPASAEQCL
[3]
  Toxicity: not shown any toxicity
